Laboratory results reported in PMC6974936.

How the values were obtained:
[1] = biological target: N-terminus Huntingtin exon 1 fragment harboring pathological (109Q) polyglutamine repeats, fused with eCFP or eYFP; assay: FRET or BRET; frequency-domain FLIM-FRET (phasor trajectory) in living Neuro2a cells co-expressing 109QHtt-eCFP and 109QHtt-eYFP; aggregated fraction; no peptide
[2] = biological target: N-terminus Huntingtin exon 1 fragment harboring pathological (109Q) polyglutamine repeats, fused with eCFP or eYFP; assay: FRET or BRET; frequency-domain FLIM-FRET (phasor trajectory) in living Neuro2a cells co-expressing 109QHtt-eCFP and 109QHtt-eYFP; aggregated fraction; cells treated with 8R10Q
[3] = biological target: N-terminus Huntingtin exon 1 fragment harboring pathological (109Q) polyglutamine repeats, fused with eCFP or eYFP; assay: FRET or BRET; frequency-domain FLIM-FRET (phasor trajectory) in living Neuro2a cells co-expressing 109QHtt-eCFP and 109QHtt-eYFP; soluble fraction; cells treated with 8R10Q
[4] = biological target: N-terminus Huntingtin exon 1 fragment harboring pathological (109Q) polyglutamine repeats, fused with eCFP or eYFP; assay: FRET or BRET; frequency-domain FLIM-FRET (phasor trajectory) in living Neuro2a cells co-expressing eCFP (donor) and eYFP (acceptor) fusions; soluble fraction; no peptide

N-terminus Huntingtin exon 1 fragment harboring pathological (109Q) polyglutamine repeats, fused with eCFP or eYFP, sequence (P42858 whole entry, change not shown, the tested form may be a part): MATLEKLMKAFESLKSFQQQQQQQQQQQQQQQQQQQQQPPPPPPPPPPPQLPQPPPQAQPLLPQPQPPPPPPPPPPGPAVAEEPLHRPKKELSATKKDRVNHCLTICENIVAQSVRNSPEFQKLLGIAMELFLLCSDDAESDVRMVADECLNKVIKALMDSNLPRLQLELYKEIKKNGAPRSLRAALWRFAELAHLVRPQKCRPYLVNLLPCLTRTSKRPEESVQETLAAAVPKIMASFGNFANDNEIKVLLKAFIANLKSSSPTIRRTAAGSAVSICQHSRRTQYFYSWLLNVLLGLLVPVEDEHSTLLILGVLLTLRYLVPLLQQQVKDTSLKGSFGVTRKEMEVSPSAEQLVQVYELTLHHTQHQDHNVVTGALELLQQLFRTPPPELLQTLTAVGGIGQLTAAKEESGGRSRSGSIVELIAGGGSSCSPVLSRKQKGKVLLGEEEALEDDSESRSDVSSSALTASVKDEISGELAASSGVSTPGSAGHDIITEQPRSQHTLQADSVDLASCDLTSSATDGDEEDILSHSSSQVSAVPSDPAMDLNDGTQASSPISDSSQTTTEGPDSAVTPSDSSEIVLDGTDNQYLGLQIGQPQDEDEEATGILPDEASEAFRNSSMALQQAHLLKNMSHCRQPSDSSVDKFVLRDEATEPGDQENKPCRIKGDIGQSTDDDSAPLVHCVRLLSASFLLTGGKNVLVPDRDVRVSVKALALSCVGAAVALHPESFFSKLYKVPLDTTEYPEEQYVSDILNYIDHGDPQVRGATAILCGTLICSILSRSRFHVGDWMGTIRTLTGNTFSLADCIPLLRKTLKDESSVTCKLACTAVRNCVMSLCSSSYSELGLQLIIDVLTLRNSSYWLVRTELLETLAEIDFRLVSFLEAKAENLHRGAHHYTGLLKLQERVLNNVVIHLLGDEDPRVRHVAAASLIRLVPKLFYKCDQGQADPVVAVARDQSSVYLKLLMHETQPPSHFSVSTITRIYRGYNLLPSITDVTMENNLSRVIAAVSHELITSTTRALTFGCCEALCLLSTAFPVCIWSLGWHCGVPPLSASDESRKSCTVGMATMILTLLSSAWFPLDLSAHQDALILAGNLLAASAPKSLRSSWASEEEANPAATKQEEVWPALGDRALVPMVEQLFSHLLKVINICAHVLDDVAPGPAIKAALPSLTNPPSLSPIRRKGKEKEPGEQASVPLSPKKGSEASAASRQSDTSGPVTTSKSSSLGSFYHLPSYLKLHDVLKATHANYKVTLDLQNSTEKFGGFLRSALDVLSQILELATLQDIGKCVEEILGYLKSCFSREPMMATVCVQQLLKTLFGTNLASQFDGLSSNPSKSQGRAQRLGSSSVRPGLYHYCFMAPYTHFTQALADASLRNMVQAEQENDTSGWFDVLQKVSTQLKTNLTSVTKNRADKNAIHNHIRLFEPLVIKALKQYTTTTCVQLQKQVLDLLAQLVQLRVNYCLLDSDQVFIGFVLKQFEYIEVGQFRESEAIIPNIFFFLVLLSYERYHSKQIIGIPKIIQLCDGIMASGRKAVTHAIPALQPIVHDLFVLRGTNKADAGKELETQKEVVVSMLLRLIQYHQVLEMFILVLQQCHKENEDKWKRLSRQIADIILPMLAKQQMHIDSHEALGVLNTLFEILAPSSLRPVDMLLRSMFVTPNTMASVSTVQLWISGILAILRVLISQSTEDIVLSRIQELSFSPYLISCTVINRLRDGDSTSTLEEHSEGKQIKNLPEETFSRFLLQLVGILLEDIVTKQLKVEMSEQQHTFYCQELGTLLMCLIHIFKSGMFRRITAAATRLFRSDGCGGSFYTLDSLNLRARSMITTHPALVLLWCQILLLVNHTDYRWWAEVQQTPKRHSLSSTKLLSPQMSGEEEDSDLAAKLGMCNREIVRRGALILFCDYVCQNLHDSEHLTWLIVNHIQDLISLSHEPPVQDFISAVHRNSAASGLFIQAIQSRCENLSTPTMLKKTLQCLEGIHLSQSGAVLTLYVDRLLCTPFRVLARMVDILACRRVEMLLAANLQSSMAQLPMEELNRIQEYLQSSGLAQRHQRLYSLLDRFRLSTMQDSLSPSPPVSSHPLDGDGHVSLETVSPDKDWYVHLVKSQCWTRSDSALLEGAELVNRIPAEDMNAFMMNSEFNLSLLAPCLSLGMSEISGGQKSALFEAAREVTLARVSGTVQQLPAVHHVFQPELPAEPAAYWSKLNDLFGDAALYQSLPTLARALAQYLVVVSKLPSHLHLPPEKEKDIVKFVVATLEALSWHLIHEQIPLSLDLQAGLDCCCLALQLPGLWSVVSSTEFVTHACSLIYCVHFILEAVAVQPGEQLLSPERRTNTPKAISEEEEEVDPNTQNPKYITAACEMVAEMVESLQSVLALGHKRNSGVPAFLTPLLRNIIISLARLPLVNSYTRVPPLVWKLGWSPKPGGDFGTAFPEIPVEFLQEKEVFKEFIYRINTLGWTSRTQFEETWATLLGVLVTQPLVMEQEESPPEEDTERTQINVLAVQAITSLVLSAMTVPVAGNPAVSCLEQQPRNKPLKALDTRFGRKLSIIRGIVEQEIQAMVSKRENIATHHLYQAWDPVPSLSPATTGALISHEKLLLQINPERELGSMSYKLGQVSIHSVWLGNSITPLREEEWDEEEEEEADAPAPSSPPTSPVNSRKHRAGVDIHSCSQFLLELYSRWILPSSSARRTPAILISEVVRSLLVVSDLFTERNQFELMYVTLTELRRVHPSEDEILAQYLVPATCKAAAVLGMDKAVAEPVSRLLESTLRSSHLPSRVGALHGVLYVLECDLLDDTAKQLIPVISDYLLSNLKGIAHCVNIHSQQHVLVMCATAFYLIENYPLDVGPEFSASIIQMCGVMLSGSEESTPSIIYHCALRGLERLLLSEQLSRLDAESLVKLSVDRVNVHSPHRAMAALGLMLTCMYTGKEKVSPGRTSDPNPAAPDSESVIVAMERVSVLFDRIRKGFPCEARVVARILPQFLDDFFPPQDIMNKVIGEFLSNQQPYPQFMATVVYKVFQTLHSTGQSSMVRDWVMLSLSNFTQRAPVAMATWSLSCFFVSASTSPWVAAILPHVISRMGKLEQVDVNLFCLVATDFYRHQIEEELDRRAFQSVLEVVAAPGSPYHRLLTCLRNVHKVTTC

FRET efficiency [1]: 41.8% | FRET efficiency with 8R10Q [2]: 16.4% | FRET efficiency with 8R10Q [3]: 4.5% | FRET efficiency [4]: 8.7%
Substance: N-terminus Huntingtin exon 1 fragment harboring pathological (109Q) polyglutamine repeats, fused with eCFP or eYFP (domain or fragment)
